Measurements reported in patent US20260167703A1.
Where a chain is given by its changes, count along the chain named.

B1: DENV4-7D5 (antibody, V domains shown)
VH: QSVEESGGRLVTPGTPLTLTCTVSGIDLSSWEMGWVRQAPGKGLEWIGIIFPSGTIYYANWAKGRFAISKASTTVDLKITSPTTEDTATYFCGRHGGSLYLNIWGPGTLVTVSL
VL: AQVLTQTPSPVSAAVGGTVTINCQASQSVYVNRNLAWYQQKPGQPPKVLIYEASKLASGVPSRFKGSGSGTQFTLTISGVQCDDAATYYCQGEFGCSSADCIAFGGGTEVVVK
B2: DENV4-8C7 (antibody, V domains shown)
VH: B1 VH with W31Y, A67T, A71T
VL: B1 VL
B3: DENV4-5B11 (antibody, V domains shown)
VH: QSVEESGGRLVTPGTPLTLTCTVSGFSLSDSAMSWVRQAPGKGLEWIGYIYAGSGTTYYASWAKGRFTISKTSTTVDLKITSPTTEDTATYFCARATAYVGYGYGDDTFDPWGPGTLVTVSS
VL: AYDMTQTPASVEVAVGGTVTIKCQASQSISSYLSWYQQKPGQRPKLLIYRASTLASGVSSRFKGSGSGTEFTLTISGVQCDDAATYYCQQGYSNSDVDNVFGGGTEVVVK
B4: DENV4-7G4 (antibody, V domains shown)
VH: B3 VH with D30S, S31C, S34T, A52V, G53D, G55D, K71T, K79R, A96T, Y102G
VL: DVVMTQTPASVEAAVGGTVTINCQASQNINSYLSWYQQKPGQRPKLLIYRAFTLASGVSSRFKGSGSGTQFTLTISGVECADAATYYCQQGYSFSGVDNVFGGGTEVVVK
B5: DENV2-3H11 (antibody, V domains shown)
VH: QSVEESGGRLVTPGTPLTLTCTVSGFSLINYDMSWIRQAPGKGLEWIGMVSGGGHTNYASWANGRFTISKTSSTTMDLKITSPTTEDTASYFCGRWDIWGPGTLVTVSL
VL: AVVVTQTASPVSAAVGGTVTISCQSSQSVYDDNWLAWYQQKPGQPPKQLIYRASRLASGVPSRFSGTGSGTQFTLTISGVQCDDAATYYCLGGYVDDGDTTFGGGTEVVVK
B6: DENV2-8D8 (antibody, V domains shown)
VH: QSLEESGGRLVKPDETLTLTCTVSGIDLSSTIITWVRQAPGKGLEYIGIIGSSGSIISANWAKGRFTISRTSTTVDLKMTSLTTEDTATYFCARIAWSTGRNDIWGPGTLVTVSS
VL: AAVLTQTPPSVSAAVGGTVTISCQSSQSVYNNNALSWYQQKPGQPPKLLIYLASNLASGVPSRFSGSGSGTQFTLTISGVQCDDAATYHCLGVDDDDVDNTFGGGTEVVVK
B7: DENV2-5F4 (antibody, V domains shown)
VH: QSVEESGGRLVKPDETLTLTCTVSGIDLSNTVISWVRQAPGKGLEYIGMITPSGSAYSATWAKGRVTISRTSTTVDLKIASPTTEDTATYFCARIAWSTGRNDIWGPGTLVTVSS
VL: B6 VL with S22K, L52Q, N55K, A57S, P61S, Q72H, H89Y, V93I, D94Y, K111G
B8: DENV4-7F2 (antibody, V domains shown)
VH: QSVEESGGRLVTPGTPLTLTCTVSGIDLSYYAMGWVRQAPGEGLECIGFIDTGDSAYYASWAKGRFTISKTSSTTVDLKITSPTPEDTATYFCGRSLSSYYDWDAFDPWGPGTLVTVSS
VL: AYDMTQTPASVEVAVGGTVTINCQASQTIGNLLAWYQQKPGQRPKLLIYRASTLASGVPSRFKGSGSGTQFTLTISGVECADAATYYCQQGASANDIDNSFGGGTAVVVK
B9: DENV4-10A11 (antibody, V domains shown)
VH: QSVEESGGRLVTPGTPLTLTCTVSGINLSFYAMGWVRQAPGKGLECVGFIDTDNSAYYASWAKGRFTISKTSTTVDLKITSPTTEDTATYFCARSLSSFYDWDAFDPWGPGTLVTVSS
VL: B8 VL with N22K, Q24L, T28S, G30S, A94N, N95S, S100A, A106E
B10: DENV4-9G8 (antibody, V domains shown)
VH: QSLEESGGGLVKPGASLTLTCTASGFSFSYRYWMSWVRQAPGKRPEWIACIDTGNGDTYYASRAKGRFTIMKTSSTTVTLQMTSLTVADTATYFCARSDVTLTGYGYGNLWGPGTLVTVSS
VL: DSVMTQTPASVSEPVGGTVTINCQASHNIYNSLAWYQQKPGQPPKLLIYRASTLESGVPSRVKGSGYGTEYTLTISDLECADAATYYCQQYYGGDDDGFGFGGGTEVVVK

Columns and labels:
[1] = biological target: DENV-4 E protein Domain III (Dengue virus serotype 4, strain Indonesia/1036/1976); experiment: BLI, mAb on AR2G biosensor, 20 ug/mL Domain III, 1200 sec
[2] = biological target: DENV-2 VLP (Dengue virus serotype 2, strain Thailand/16681/84); experiment: Luminex, VLP-coupled beads
[3] = biological target: DENV-2 E protein Domain III (Dengue virus serotype 2, strain Thailand/16681/1984); experiment: BLI, mAb on AR2G biosensor, 20 ug/mL Domain III, 1200 sec
[4] = biological target: DENV-2 VLP (Dengue virus serotype 2, strain Thailand/16681/84)

Binder	Response (nm) [1] [nm]	EC50 [2] [µg/mL]	Response (nm) [3] [nm]	Response (nm) [4] [nm]	koff [4] [s⁻¹]
B1	-0.007				
B2	-0.014				
B3	0.02				
B4	-0.001				
B5		0.0354	-0.00452	2.02	< 2e-05
B6		0.011	0.0246	0.756	< 2e-05
B7		0.0095	0.0206	1.5	< 2e-05
B8	-0.005				
B9	0.012				
B10	0.264				
